We go through two molecules from US20130040886A1 (BOARD OF TRUSTEES OF THE UNIVERSITY OF ILLINOIS, published 2013).

Assay [1] deals with T1, kindlin 3 (72 kD) from solubilized human platelets (human, UniProt Q86UX7 1-667).
T1 construct: mature; Native cytoplasmic protein from solubilized human platelets
Briefly: peptide affinity column with solubilized human platelets, western blot of eluates. The source says:
(§1) On this basis, subsequent experiments examined whether G₁₃SR2ₚₑₚ peptide (SEQ ID NO:5) does indeed directly interact with α11bβ₃ and/or one of its associated proteins in human platelets. In this respect, platelet α11bβ₃ integrin is known to exist in a complex with two cytoplasmic proteins, i.e., talin and kindlin-3 (Tadokoro, et al. (2003) Science 302:103-6; Moser, et al. (2008) Nature Med. 14:325-30). To determine whether G₁₃SR2ₚₑₚ, (SEQ ID NO:5) interacts with any of these proteins (or with the entire α11bβ₃, talin, kindlin-3 complex), peptide affinity columns using G₁₃SR2ₚₑₚ (SEQ ID NO:5) were employed. The affinity purified protein(s) from solubilized human platelets that specifically bound to the G₁₃SR2ₚₑₚ peptide were eluted, and analyzed by western blot for α11bβ₃ integrin, talin and kindlin-3. In similar experiments, the eluates from a peptide column using the G₁₃SR2-Random Peptide (SEQ ID NO:9) were also analyzed. […] This was supported by similar experiments using talin antibodies and the kindlin 3 antibody (Abcam).

Assay [2] addresses T2, α11bβ3 integrin (platelet integrin αIIbβ3) from solubilized human platelets (human, UniProt P08514 32-1039; P05106 27-788).
T2 construct: mature; Native protein from solubilized human platelets, detected by immunoblot with Abcam antibodies
Described as above.
Source text: as §1

Assay [3] has as its target T3, α11bβ3-talin-kindlin 3 complex from solubilized human platelets (human, UniProt P08514 32-1039; P05106 27-788; Q9Y490 1-2541; Q86UX7 1-667).
T3 construct: mature
Put plainly: peptide affinity column with solubilized human platelets, immunoblot of eluate.
Source text: as §1

The target in assay [4] is T1, kindlin 3 (72 kD) from solubilized …. Described as above.
Source text: as §1

Assay [5] deals with T2, α11bβ3 integrin (platelet integrin …). The assay is described as above.
Source text: as §1

T1 sequence (Q86UX7 whole entry): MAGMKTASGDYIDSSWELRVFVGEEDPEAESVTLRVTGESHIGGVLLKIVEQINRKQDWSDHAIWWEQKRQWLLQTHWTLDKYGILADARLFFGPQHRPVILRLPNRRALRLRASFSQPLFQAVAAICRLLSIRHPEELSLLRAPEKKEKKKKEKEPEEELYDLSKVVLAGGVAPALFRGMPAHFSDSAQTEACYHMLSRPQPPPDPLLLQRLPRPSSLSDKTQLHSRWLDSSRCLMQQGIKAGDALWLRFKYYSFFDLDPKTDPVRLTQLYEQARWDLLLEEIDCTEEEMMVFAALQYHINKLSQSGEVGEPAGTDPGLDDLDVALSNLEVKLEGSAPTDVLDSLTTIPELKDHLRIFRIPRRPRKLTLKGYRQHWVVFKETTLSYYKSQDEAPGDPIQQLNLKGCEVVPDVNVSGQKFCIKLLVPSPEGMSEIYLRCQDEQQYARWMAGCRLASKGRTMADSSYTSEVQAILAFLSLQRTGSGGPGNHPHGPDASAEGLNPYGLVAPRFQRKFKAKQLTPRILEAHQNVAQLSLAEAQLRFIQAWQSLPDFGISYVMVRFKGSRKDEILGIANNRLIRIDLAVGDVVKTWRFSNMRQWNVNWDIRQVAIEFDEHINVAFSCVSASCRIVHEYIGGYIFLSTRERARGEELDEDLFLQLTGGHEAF

B1: G13SR2-Random Peptide, Gly-Phe-Asp-Glu-Trp-Glu-Val-Ser-Phe-Lys-Gly-Cys-Gln-Arg-Arg-Ser-Arg (peptide)
peptide: GFDEWEVSFKGCQRRSR
notes: Control peptide immobilised on a peptide column; also called Random Peptide control
As for B1, the binding result in assay [1] and in assay [2] was “no binding” throughout.

B2: G13 Switch Region 2 peptide (G13SR2pep), Val-Gly-Gly-Gln-Arg-Ser-Glu-Arg-Lys-Arg-Trp-Phe-Glu-Cys-Phe-Asp-Ser (peptide)
peptide: VGGQRSERKRWFECFDS
notes: how it was coupled is not described; also called G13SR2pep peptide; Gα13 SR2 peptide
As to B2, the binding result in assay [3], in assay [4] and in assay [5] was “binds” each time.
